The record followed here is the DeepSol protein solubility set.

The nature of this data set: soluble on expression in E. coli; label from the status in PepcDB or PDB records.
On to “MIKESTLHISFMAVRQTMRRVISRIVPPREVEDIVQETYVRICQVENKEAIKQPRSFLLKTAKNLAIDHLKRADIRLVDTVDNMAEFEHLVSADDAIYQQVATDKEFAQFCEAIRQLPIQCRKAFVLKKVYGYSQKEIAKKLAISESTVEKHIGLGVKRCTYFMMQLTKEERTETMKNSKKTHQVRRDL”, for which the “soluble on expression in E. coli” value is given as “not soluble”. For the sequence “MGSDKIHHHHHHMNEILKNSPISRAKLSEITGLNKSTISSQVNTLLENKFIFEIGEGQSRGGRRPVMLVFNKNAGYSIGIDVGVDYINGILTDLEGNIVLEKSYNLPIPSSDEVKEILFTIIKYFVSHMPESPYGLIGIGICVPGLVDKQQKIIFMPNSKWEIKDLKAVIETEFNVPVFIENEANAGAYGEKVFGNTKNFSNIIYVSINVGIGIGIIINNELYKGINGFSGEMGHMAIDFNGPKCSCGNRGCWELYASEKALLNSFFKDGKAISCHEIIELAHKNDVEVLNALQNFGFYIGIGLTNILNTFDAEAVILRNHIIESNPIVLNAIKNAVSSRVYSQIEGTYELLPSSLGKNAPALGTTSIVIEHFLNK”, the “soluble on expression in E. coli” value is recorded as “not soluble”. The result for “MGSDKIHHHHHHMTNETTTSILEYADTHLKFSMEDLFAYLHKKIGINKSSLAWYLFKLVNENKLVRTGRGMYARILKPSFAPQPAEEVKEVYDLLTTHFPFAKFCIYQGEIIAPLQHHLSPNRIIYVETDRGTAETVFHLLKDDYQDVYLRPNKEMIYRYVDMDSRVFIVKNLVSEAPLQHISGVPIPTLEKLLVDILRDVDFFYLQGSESERIIENAFNLYAINRSRLFRYAGRRKVKEELSTILENLNIV” reads “not soluble”; that for “MGSDKIHHHHHHLTEFTLMVAPNGARRGKADHPALPMTAPELAETALACHRLGAQALHLHVRDAEGVHSLDAGRYREAMSLVSEAVPTMGIQITTESAGLFDVGAQLACLEALRPAAASVSVREMARDKSLAARAYALCSEAGTQVQHILYTPECVEQLEAWYADGTVPDEMRDVILVLGQYATGQPARPAMLPPFLALIAPLDLRWSLCAFGPEEHACLLAAVEAGGQVRIGFENSLGPMGGPAWADNAASVEAFLNLTVARGHTLDPHQNMPGANLRELT”, “not soluble”. Turning to “MGSDKIHHHHHHAKESEQKVTIDSAKHEKHTKDKEENNSANTVFFDKINDLLVASVKEFEGTVGISYLDLETGEQRSVNGQHEFYTASTIKVPLTMLVADTVASGQKKWTDLIPYNAEEDYEEGTGIIAYNIQPEYPLKTLQEYAITYSDNIAKNMLYDTLGGDAKAKREMYQRYLHKTPSIEEPQFSSEDALVILQKLYTEKATKPDYQAIYDSMKQSVFHERMETPTTQGKVAHKIGSYDEFIHDMGILETPHPFALAIFTKGPDNAKSAAFIASVTDKLWQLQVSEYPNQ”, the “soluble on expression in E. coli” value is on record as “not soluble”. In the case of “MGSDKIHHHHHHMTEKADGKARIVRLGQILRIFMEKEKVSSTWLSRQFQTTPRTIQRDLLLLKKSGFPLHEIRKGIYQLHKDLVRNLEVFDDTELALVVALKNIVGQLGRPFQTAAGNILDHLYDCVKSMPVFVKIDDAVPLDSALLNRILQAILKKRTVSFQYAAPHGSHAVNLEPYRVVYFSGFWYLIGNEPSTGILKRYALDKIENFKSSRQCFTAIPSDLDDVLRQSANIWFTEDANIEITVHIDARVSDYFKRRKMYPTQEIKEERPDGSLVVTFRVGNYEAIRDILKSWIPHFVILEPEDFRVSMLNDIKGWVEKQEQQSCLDNISF”, the “soluble on expression in E. coli” value was “not soluble”. The result for “MHSLGWDIWNAVQPKEFYKGFLRRSIRPDGRKLSEYRDITLRKGPLVTTVDGSANASIGRTVALIGIQPKVIEWKETKKGSARSIVGQHCSLQVEFPSVCHRDIRSGRTLEEALLVKESLENVLEQILERDSFCIVPDKFYWHLQITAYCLSLDGNVIETFLLALYGALLDLQLPVVRASTSGDLLTLDPNQPKVTLPMKKLEDWPWVVPIGLFWNGPSEYYAVLDLSEEEENNMSSIVWIWNSQRGDKLAISKQKVGPLSVNILQEVLQLVKAHIDEVILRLQHGK” reads “not soluble”. Consider “MGSDKIHHHHHHMKKKTAVVFGTFAPLHQGHIDLIQRAKRQCDQVWVVVSGYEGDRGEQVGLTLQKRFRYIREAFRGDELTLVCKLDETNLPRYPMGWQEWLDQMLAEISYDETQQELIFFVGEADYQQELSNRGFETVLQERKFGISATMIRENPSKYWKNIAQPFRRQFTKKVLIMGSASNGKTTLAKDLARYYDAPVSLEYAREYQIKNNVRDDELTPKDYYYLLLGQYDQTSKLIDSNANRGLVIADTNSLVTKGYYDYYMETEDQGDLSGETFDNLFVSILAKEKWDLILFVQPVGSYVNDGFRDMTMAEDHIRHSFSQHLDHMRERYLTTIPLVYLAEDYLGNYEAAKVAIDAIYQAD”, for which the “soluble on expression in E. coli” value is listed as “not soluble”. In the case of “MSLANFVHEGDLPDGVFADAEIIAIDSETMGLRLRRDPLCVVQLSAGDGDAHVVRLSRPDYDCPNLKALLTNPKVLKLFHFGRFDIAMFELHLGVVTAPVYCTKIASKLARTYTDRHGLKDVTRELLGVELSKVQQSSDWGAPSLSVDQVAYAASDVLHLHGLRLKLNAMLEREGRMALAQHAFDYLPHRASLDLAGWEEMDIFAHSEGHHHHHH” it was “soluble”; in that of “TLIHIYDTSEPELDVQVTGYQWKWQYKYLGQDVEYFSNLATPQDQIHNRQAKDEHYLLEVDEPLVLPVGTKVRFLITSSDVIHSWWVPAFAVKRDAIPGFVNEAWTKVDEPGIYRGQCAELCGKDHGFMPIVVDVKPKAEFDQWLAKRKEEAAKVKELTSKEWTKEELVARGDKVYHTICAACHQAEGQGMPPMFPALKGSKIVTGPKEHHLEVVFNGVPGTAMAAFGKQLNEVDLAAVITYERNAWGNDDGDMVTPKDVVAYKQK”, “not soluble”. In the case of “MSTPFGLDLGNNNSVLAVARNRGIDIVVNEVSNRSTPSVVGFGPKNRYLGETGKNKQTSNIKNTVANLKRIIGLDYHHPDFEQESKHFTSKLVELDDKKTGAEVRFAGEKHVFSATQLAAMFIDKVKDTVKQDTKANITDVCIAVPPWYTEEQRYNIADAARIAGLNPVRIVNDVTAAGVSYGIFKTDLPEGEEKPRIVAFVDIGHSSYTCSIMAFKKGQLKVLGTACDKHFGGRDFDLAITEHFADEFKTKYKIDIRENPKAYNRILTAAEKLKKVLSANTNAPFSVESVMNDVDVSSQLSREELEELVKPLLERVTEPVTKALAQAKLSAEEVDFVEIIGGTTRIPTLKQSISEAFGKPLSTTLNQDEAIAKGAAFICAIHSPTLRVRPFKFEDIHPYSVSYSWDKQVEDEDHMEVFPAGSSFPSTKLITLNRTGDFSMAASYTDITQLPPNTPEQIANWEITGVQLPEGQDSVPVKLKLRCDPSGLHTIEEAYTIEDIEAGSDTKTVKKDDLTIVAHTFGLDAKKLNELIEKENEMLAQDKLVAETEDRKNTLEEYIYTLRGKLEEEYAPFASDAEKTKLQGMLNKAEEWLYDEGFDSIKAKYIAKYEELASLGNIIRGRYLAKEEEKKQAIRSKQEASQMAAMAEKLAAQRKAEAEKKEEKKDTEGDVDMD”, the “soluble on expression in E. coli” value is “soluble”. “MGSDKIHHHHHHMMKIPKKIHQIYTKGIHDLPEEILVSVGKLKDLNPGWEYFFYDEKSIIGYIHKHYGKEMLNIYLSINPKYGVAKADLFRYLLIYIEGGVYLDIKSSCSIPLDQVIKDDCEILLCSWDNKECGCDRNMGIHKELGFLKCGEYQQWNIISASGSPYIKSAIDEVIHRLKTYKPWIYGVGMKGVLNTTGPVPFSVGIERINKTEFFHHEENYRNIGLKYRNVTEETIRKLNKNHYSKLKDSIVTLEGKDKLYYKLWLLFFYPLQRLKKNIINESKFVIRKMKRISRKTSQ”: the “soluble on expression in E. coli” value was “not soluble”.

Regarding “PYSYDLIFGDVNTTNFYAQFAKKHNTHMWSKIQSTQNGEIGFHKNSKTGQQRH”, the “soluble on expression in E. coli” value was “soluble”. On to “MEEVMALSEPEQNTWINRPEYSEVSEDRIVIVSDANTDFWENTYYDFSHYTGHVYGKETESDFTFQVRVKADFSALYDQAGIFIGGTETAWIKAGIEFNDGQPSIGCVVTNNNSDWSTGLFPGNPGDFWMRVTSKSDVIRIQYSIDGKNWPLLRLCTWPGTRKRFIGVMCCSPKRKGLSAEFTEILLTTPLDSDLHDLSLEHHHHHH”, for which the “soluble on expression in E. coli” value is “soluble”. In the case of “MGSDKIHHHHHHMSQTTVVNGVNVDQLMATIEQIKAKPEIAQFKFRATNQWMGGTHNQATIKDFYGACAEDDTRKPMVFDLDEPPVLLGENRGANPVEYLLVALSGCLTTSLVAHAAARGIALRGVKSRYEGDIDLRGFLGLSEEVPVGYREIRVFFSIDADLTDGQKEELIRMAQKYSPVYNTVAKPVPVAVLLDRG” it was “not soluble”.
